Measured values published in patent US11912794B2, “Modulation of structured polypeptide specificity” (BicycleRD Limited, priority 2011, dated 2024).
Ends that are not written are not given here.

Target: T1, Biotinylated hPK (Homo sapiens, UniProt P03952)
T1 construct: IHPKA, from human plasma; purchased Innovative Research, Novi, MI, USA IHPKA; host or cells: human plasma
Experiment: Phage selections, abundance of sequences in selection outputs
Assay type: binding
Details: for Frequency (relative abundance in the total selection outputs): randomised WPAR motif at positions 2, 3, 4 & 5 within the 06-34-03 sequence
Experimental: Glycerol stocks of phage libraries were diluted to OD600=0.1 in 500 ml 2YT/chloramphenicol (30 μg/ml) cultures and phage were produced at 30° C. over night (15-16 hrs). Phage were purified and chemically modified as described in Heinis, et al., Nat Chem Biol 2009, 5 (7), 502-7 Biotinylated hPK (3 μg) (IHPKA, from human plasma, Innovative Research, Novi, MI, USA) was incubated with 50 μl pre-washed magnetic streptavidin beads (Dynal, M-280 from Invitrogen, Paisley, UK) for 10 minutes at RT. […] Blocked beads were then mixed with the blocked chemically modified phage and incubated for 30 minutes on a rotating wheel at RT. Beads were washed 8 times with washing buffer containing 0.1% Tween 20 and twice with washing buffer before incubation with 100 μl of 50 mM glycine, pH 2.2 for 5 minutes. Eluted phage were transferred to 50 μl of 1 M Tris-Cl, pH 8 for neutralization, incubated with 30 ml TG1 cells at OD600=0.4 for 90 minutes at 37° C. and the cells were plated on large 2YT/chloramphenicol plates. One or two additional rounds of panning were performed using the same procedures. In the second round of selection, neutravidin-coated magnetic beads were used to prevent the enrichment of streptavidin-specific peptides. The neutravidin beads were prepared by reacting 0.8 mg neutravidin (Pierce, Rockford, IL, USA) with 0.5 ml tosyl-activated magnetic beads (Dynal, M-280 from Invitrogen, Paisley, UK) according to the supplier's instructions.
The WPAR (SEQ ID NO: 18) motif identified from Example 1 was analysed in the context of the 06-34-03 peptide, in order to identify alternatives or improvements to the WPAR (SEQ ID NO: 18) motif. A library was constructed where positions 1, 6, 7, 8, 9 &10 of 06-34-03 were fixed and positions 2, 3, 4 & 5 were randomised (see ‘Randomisation of peptide domains—Library construction’ in Methods above). Selections against human plasma Kallikrein were performed at a variety of stringencies (see Phage selections' in Methods above). All output sequences were identified and analysed for target binding (see ‘Randomisation of peptide domains—Assay of binding of individual clones’ in Methods above). Table 17 lists each unique sequence, its relative abundance in the selection output (frequency), and a rank number according to target binding strength.

[1] = 2nd stringency from High (1st value of cell)
[2] = 3rd stringency from High (2nd value of cell)
[3] = 4th stringency from High (3rd value of cell)
[4] = 5th stringency from High (4th value of cell)

T1 sequence (P03952 20-638): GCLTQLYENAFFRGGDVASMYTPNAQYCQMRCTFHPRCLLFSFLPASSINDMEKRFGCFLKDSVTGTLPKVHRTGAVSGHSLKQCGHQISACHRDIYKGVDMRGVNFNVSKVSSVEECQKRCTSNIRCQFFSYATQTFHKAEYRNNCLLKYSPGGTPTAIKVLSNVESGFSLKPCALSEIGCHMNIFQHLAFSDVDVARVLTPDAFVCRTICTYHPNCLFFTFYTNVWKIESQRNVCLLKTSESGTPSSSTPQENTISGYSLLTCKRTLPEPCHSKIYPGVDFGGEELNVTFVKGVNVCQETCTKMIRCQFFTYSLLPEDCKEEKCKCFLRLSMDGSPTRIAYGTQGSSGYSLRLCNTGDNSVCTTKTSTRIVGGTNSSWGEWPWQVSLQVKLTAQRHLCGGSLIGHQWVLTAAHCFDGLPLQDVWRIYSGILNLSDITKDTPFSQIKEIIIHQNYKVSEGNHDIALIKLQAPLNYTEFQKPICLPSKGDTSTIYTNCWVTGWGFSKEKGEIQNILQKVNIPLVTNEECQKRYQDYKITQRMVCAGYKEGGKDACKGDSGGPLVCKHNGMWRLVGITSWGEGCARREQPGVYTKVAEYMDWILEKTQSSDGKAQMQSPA

Q: With “SEQ ID NO: 107 (CSFSYKCTHQDLC; Synthetic sequence Kallikrein binder identified from selections using a randomised WPAR motif at positions 2, 3, 4 & 5 within the 06-34-03 sequence of PCT/EP2012/069898 (SEQ ID NO 58))” as the substance, how does the “Frequency (relative abundance in the total selection outputs)” value read?
A: The value was 1.

Q: “SEQ ID NO: 79 (CSWAARCTHQDLC; Synthetic sequence Kallikrein binder identified from selections using a randomised WPAR motif at positions 2, 3, 4 & 5 within the 06-34-03 sequence of PCT/EP2012/069898 (SEQ ID NO 58))” was tested. Which “Frequency (relative abundance in the total selection outputs)” value did it give?
A: Its value is 1.

Q: Which “Frequency (relative abundance in the total selection outputs)” value does the source give for “SEQ ID NO: 111 (CRWPYHCTHQDLC; Synthetic sequence Kallikrein binder identified from selections using a randomised WPAR motif at positions 2, 3, 4 & 5 within the 06-34-03 sequence of PCT/EP2012/069898 (SEQ ID NO 58))” here?
A: The value was 1.

Q: “SEQ ID NO: 103 (CSMPYRCTHQDLC; Synthetic sequence Kallikrein binder identified from selections using a randomised WPAR motif at positions 2, 3, 4 & 5 within the 06-34-03 sequence of PCT/EP2012/069898 (SEQ ID NO 58))” was tested. Which “Frequency (relative abundance in the total selection outputs)” value did it give?
A: The value was 2.

Q: For “SEQ ID NO: 101 (CSFLYKCTHQDLC; Synthetic sequence Kallikrein binder identified from selections using a randomised WPAR motif at positions 2, 3, 4 & 5 within the 06-34-03 sequence of PCT/EP2012/069898 (SEQ ID NO 58))”, which “Frequency (relative abundance in the total selection outputs)” value is on record?
A: Its value is 2.

Q: With “SEQ ID NO: 100 (CSWPYKCTHQDLC; Synthetic sequence Kallikrein binder identified from selections using a randomised WPAR motif at positions 2, 3, 4 & 5 within the 06-34-03 sequence of PCT/EP2012/069898 (SEQ ID NO 58))” as the substance, how does the “Frequency (relative abundance in the total selection outputs)” value read?
A: The value was 1.

Q: For “SEQ ID NO: 82 (CSWPYRCTHQDLC; Synthetic sequence Kallikrein binder identified from selections using a randomised WPAR motif at positions 2, 3, 4 & 5 within the 06-34-03 sequence of PCT/EP2012/069898 (SEQ ID NO 58))”, which “Frequency (relative abundance in the total selection outputs)” value is on record?
A: Its value is 3.

Q: Which results are given for “WPSR: phage clone: WPSR at positions 2-5 within the 06-34-03 sequence, TBMB-cyclised (also: TBMB-cyclised within the 06-34-03 context, the cysteines lie outside this motif)”?
A: Relative abundance of motif in selection output [1]: 31%; Relative abundance of motif in selection output [2]: 41%; Relative abundance of motif in selection output [3]: 26%; Relative abundance of motif in selection output [4]: 23%; Relative abundance of motif in selection output (stringency High): 34%; Relative abundance of motif in selection output (stringency LOW): 11%

Q: For “SEQ ID NO: 106 (CSFPFWCTHQDLC; Synthetic sequence Kallikrein binder identified from selections using a randomised WPAR motif at positions 2, 3, 4 & 5 within the 06-34-03 sequence of PCT/EP2012/069898 (SEQ ID NO 58))”, which “Frequency (relative abundance in the total selection outputs)” value is on record?
A: The value was 1.

Q: Which “Frequency (relative abundance in the total selection outputs)” value does the source give for “SEQ ID NO: 102 (CSLPIRCTHQDLC; Synthetic sequence Kallikrein binder identified from selections using a randomised WPAR motif at positions 2, 3, 4 & 5 within the 06-34-03 sequence of PCT/EP2012/069898 (SEQ ID NO 58))” here?
A: Its value is 1.

Q: “SEQ ID NO: 104 (CSIPFKCTHQDLC; Synthetic sequence Kallikrein binder identified from selections using a randomised WPAR motif at positions 2, 3, 4 & 5 within the 06-34-03 sequence of PCT/EP2012/069898 (SEQ ID NO 58))” was tested. Which “Frequency (relative abundance in the total selection outputs)” value did it give?
A: The value was 1.

Q: With “SEQ ID NO: 110 (CSQVVGCTHQDLC; Synthetic sequence Kallikrein binder identified from selections using a randomised WPAR motif at positions 2, 3, 4 & 5 within the 06-34-03 sequence of PCT/EP2012/069898 (SEQ ID NO 58))” as the substance, how does the “Frequency (relative abundance in the total selection outputs)” value read?
A: The value was 1.

Q: Which “Frequency (relative abundance in the total selection outputs)” value does the source give for “SEQ ID NO: 112 (CSLFDHCTHQDLC; Synthetic sequence Kallikrein binder identified from selections using a randomised WPAR motif at positions 2, 3, 4 & 5 within the 06-34-03 sequence of PCT/EP2012/069898 (SEQ ID NO 58))” here?
A: Its value is 1.

Q: With “SEQ ID NO: 90 (CSYPIRCTHQDLC; Synthetic sequence Kallikrein binder identified from selections using a randomised WPAR motif at positions 2, 3, 4 & 5 within the 06-34-03 sequence of PCT/EP2012/069898 (SEQ ID NO 58))” as the substance, how does the “Frequency (relative abundance in the total selection outputs)” value read?
A: Its value is 2.

Q: Which “Relative abundance of motif in selection output” value [1] does the source give for “FPYR: phage clone: FPYR at positions 2-5 within the 06-34-03 sequence, TBMB-cyclised (also: TBMB-cyclised within the 06-34-03 context, the cysteines lie outside this motif)” here?
A: Its value is 3%.

Q: And the “Relative abundance of motif in selection output” value [2]?
A: The value was 3%.

Q: And the “Relative abundance of motif in selection output” value [3]?
A: Its value is 7%.

Q: And the “Relative abundance of motif in selection output” value [4]?
A: Its value is 16%.

Q: What about the “Relative abundance of motif in selection output” value (stringency High) of the same substance?
A: The value was 7%.

Q: What about the “Relative abundance of motif in selection output” value (stringency LOW) of the same substance?
A: The value was 4%.

Q: Which “Frequency (relative abundance in the total selection outputs)” value does the source give for “SEQ ID NO: 76 (CSWLARCTHQDLC; Synthetic sequence Kallikrein binder identified from selections using a randomised WPAR motif at positions 2, 3, 4 & 5 within the 06-34-03 sequence of PCT/EP2012/069898 (SEQ ID NO 58))” here?
A: The value was 8.

Q: With “SEQ ID NO: 78 (CSFPFKCTHQDLC; Synthetic sequence Kallikrein binder identified from selections using a randomised WPAR motif at positions 2, 3, 4 & 5 within the 06-34-03 sequence of PCT/EP2012/069898 (SEQ ID NO 58))” as the substance, how does the “Frequency (relative abundance in the total selection outputs)” value read?
A: Its value is 4.

Q: Which “Frequency (relative abundance in the total selection outputs)” value does the source give for “SEQ ID NO: 94 (CSFPYKCTHQDLC; Synthetic sequence Kallikrein binder identified from selections using a randomised WPAR motif at positions 2, 3, 4 & 5 within the 06-34-03 sequence of PCT/EP2012/069898 (SEQ ID NO 58))” here?
A: The value was 1.

Q: Which “Frequency (relative abundance in the total selection outputs)” value does the source give for “SEQ ID NO: 86 (CSWPFRCTHQDLC; Synthetic sequence Kallikrein binder identified from selections using a randomised WPAR motif at positions 2, 3, 4 & 5 within the 06-34-03 sequence of PCT/EP2012/069898 (SEQ ID NO 58))” here?
A: Its value is 7.

Q: “WSAR: phage clone: WSAR at positions 2-5 within the 06-34-03 sequence, TBMB-cyclised (also: TBMB-cyclised within the 06-34-03 context, the cysteines lie outside this motif)” was tested. Which “Relative abundance of motif in selection output” value [1] did it give?
A: The value was 3%.

Q: What about the “Relative abundance of motif in selection output” value [2] of the same substance?
A: The value was 3%.

Q: And the “Relative abundance of motif in selection output” value [3]?
A: Its value is 7%.

Q: What about the “Relative abundance of motif in selection output” value [4] of the same substance?
A: The value was 6%.

Q: What about the “Relative abundance of motif in selection output” value (stringency High) of the same substance?
A: Its value is 3%.

Q: And the “Relative abundance of motif in selection output” value (stringency LOW)?
A: The value was 11%.
